Molecular target: - (UniProt P08069)
Assay: ELISA
Conditions: scFv

EC50: 24 nM
Substance: Teprotumumab scFv mutant into which the consensus sequences were introduced (H16G, L60D, and L85D)

Source: patent US20260204353A1
